Substitutions are numbered along the chain they refer to.
B1: CD3_F2F-BCMA (bispecific antibody, part only; not given: anti-BCMA arm and common light chain, part only)
anti-CD3 heavy chain: EVQLVESGGGLVQPGRSLRLSCAASGFTFHNYAMHWVRQAPGKGLEWVSGISWNSGSIGYADSVKGRFTISRDNAKNSLYLQMNSLRAEDTALYYCAKDSRGYGDYSLGGAYWGQGTLVTVSS
B2: CD3_F2B-BCMA (bispecific antibody, part only; not given: anti-BCMA arm and common light chain, part only)
anti-CD3 heavy chain: B1 anti-CD3 heavy chain with H30D, N31D, S107R

Columns and labels:
human CD3 (human) [1] = target: human CD3 (human) (UniProt P07766); assay: Octet, protein binding affinity of the anti-CD3 arm of the bispecific; form of the CD3 protein not stated
human CD3 (human) [2] = target: human CD3 (human) (UniProt P07766)
human CD3 (human) [3] = target: human CD3 (human) (UniProt P07766); assay: flow cytometry, bispecific antibody on Jurkat cells; antibody concentration not given

Sequence of human CD3 (human) (P07766 23-207, chain 1 of 2): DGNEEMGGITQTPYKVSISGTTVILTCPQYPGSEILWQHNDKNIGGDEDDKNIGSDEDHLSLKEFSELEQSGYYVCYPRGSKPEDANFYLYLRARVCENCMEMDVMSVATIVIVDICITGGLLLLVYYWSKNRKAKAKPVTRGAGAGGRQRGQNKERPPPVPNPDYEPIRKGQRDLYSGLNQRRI
Sequence of human CD3 (human) (P04234 22-171, chain 2 of 2, further chain): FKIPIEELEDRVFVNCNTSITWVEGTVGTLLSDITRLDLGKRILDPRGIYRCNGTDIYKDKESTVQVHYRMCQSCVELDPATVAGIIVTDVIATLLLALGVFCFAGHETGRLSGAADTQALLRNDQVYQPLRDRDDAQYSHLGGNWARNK

Binder | Kd (human CD3 (human) [1]) | %kill of U266 tumor cells with human pan T-cells at 333 ng/mL bispecific (human CD3 (human) [2]) | IFNg released by pan T-cells, bispecific on plate-coated BCMA protein, at 12 ng/mL bispecific (human CD3 (human) [2]) | IL-2 released by pan T-cells, bispecific on plate-coated BCMA protein, at 37 ng/mL bispecific (human CD3 (human) [2]) | IL-6 released by pan T-cells, bispecific on plate-coated BCMA protein, at 111 ng/mL bispecific (human CD3 (human) [2]) | IL-10 released by pan T-cells, bispecific on plate-coated BCMA protein, at 111 ng/mL bispecific (human CD3 (human) [2]) | TNFa released by pan T-cells, bispecific on plate-coated BCMA protein, at 12 ng/mL bispecific (human CD3 (human) [2]) | kill EC50: U266 tumor cell lysis with human pan T-cells (human CD3 (human) [2]) | Jurkat cell bind (MFI) (human CD3 (human) [3])
B1 | 714 nM | 51% | 333 pg | 44 pg | 0.5 pg | 2.4 pg | 485 pg | 0.0098 µg/mL | 67 MFI
B2 | 1000 nM | 38% | 154 pg | 8 pg | 0.5 pg | 0.6 pg | 553 pg | 0.15 µg/mL | 31 MFI
